Experiments:
[1] = molecular target: T1, human Axl on the surface of cells (human, UniProt P30530 26-894); assay: flow cytometry on A549 cells
T1 construct: whole, on cells; Endogenous Axl of the cell lines; also called cell surface Axl; Axl receptor
T1 sequence (looked up): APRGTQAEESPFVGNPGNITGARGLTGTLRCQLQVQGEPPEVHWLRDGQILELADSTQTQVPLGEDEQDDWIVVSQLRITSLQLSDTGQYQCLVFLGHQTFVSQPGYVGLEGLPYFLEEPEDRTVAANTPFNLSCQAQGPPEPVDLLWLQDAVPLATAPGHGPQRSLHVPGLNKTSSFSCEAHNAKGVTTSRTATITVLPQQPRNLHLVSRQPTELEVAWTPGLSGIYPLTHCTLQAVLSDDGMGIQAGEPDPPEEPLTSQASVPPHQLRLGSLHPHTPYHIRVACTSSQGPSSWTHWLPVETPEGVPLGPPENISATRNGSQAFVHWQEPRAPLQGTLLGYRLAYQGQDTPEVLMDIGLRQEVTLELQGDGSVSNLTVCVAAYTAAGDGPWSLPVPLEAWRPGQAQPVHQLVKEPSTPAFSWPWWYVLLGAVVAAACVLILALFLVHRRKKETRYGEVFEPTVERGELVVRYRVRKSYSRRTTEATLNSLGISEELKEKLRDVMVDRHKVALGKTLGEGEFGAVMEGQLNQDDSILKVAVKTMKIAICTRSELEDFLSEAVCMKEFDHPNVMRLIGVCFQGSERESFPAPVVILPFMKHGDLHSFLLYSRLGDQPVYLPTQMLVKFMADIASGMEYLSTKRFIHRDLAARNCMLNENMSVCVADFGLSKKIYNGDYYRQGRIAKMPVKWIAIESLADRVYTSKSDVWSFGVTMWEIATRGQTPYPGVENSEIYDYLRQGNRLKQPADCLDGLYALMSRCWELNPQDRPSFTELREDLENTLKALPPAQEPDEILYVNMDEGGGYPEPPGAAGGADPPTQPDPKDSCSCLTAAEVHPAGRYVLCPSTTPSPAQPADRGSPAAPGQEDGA
Text: FIG. 2: Flow cytometry analysis of cell surface Axl in A549.

mouse Axl-Fc = molecular target: T2, mouse Axl-Fc (mouse, UniProt Q00993 20-443, limits assumed); assay: ELISA on coated Fc fusion proteins
T2 construct: also called m-Axl; not shown: Fc part
T2 sequence (looked up): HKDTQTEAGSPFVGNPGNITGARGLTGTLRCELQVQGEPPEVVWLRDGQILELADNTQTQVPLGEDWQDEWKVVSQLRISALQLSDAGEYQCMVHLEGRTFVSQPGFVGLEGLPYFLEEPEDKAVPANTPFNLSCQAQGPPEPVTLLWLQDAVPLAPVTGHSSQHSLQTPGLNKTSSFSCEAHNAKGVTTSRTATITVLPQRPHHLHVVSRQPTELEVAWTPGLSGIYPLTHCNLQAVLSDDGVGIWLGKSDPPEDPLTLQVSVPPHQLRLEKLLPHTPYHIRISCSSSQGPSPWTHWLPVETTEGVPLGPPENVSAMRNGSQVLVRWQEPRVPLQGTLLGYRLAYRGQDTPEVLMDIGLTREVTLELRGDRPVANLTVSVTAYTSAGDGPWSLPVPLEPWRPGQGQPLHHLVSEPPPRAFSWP
Method: (§1) FIG. 1: ELISA experiments to investigate the affinity and the specificity of mouse monoclonal antibodies against hAxl. […] After washing, HRP-conjugated anti-mouse IgG was added.

human Mer-Fc = molecular target: T3, human Mer-Fc (human, UniProt Q12866 26-499, limits assumed); assay: ELISA on coated Fc fusion proteins
T3 construct: also called h-Mer; not shown: Fc part
T3 sequence (looked up): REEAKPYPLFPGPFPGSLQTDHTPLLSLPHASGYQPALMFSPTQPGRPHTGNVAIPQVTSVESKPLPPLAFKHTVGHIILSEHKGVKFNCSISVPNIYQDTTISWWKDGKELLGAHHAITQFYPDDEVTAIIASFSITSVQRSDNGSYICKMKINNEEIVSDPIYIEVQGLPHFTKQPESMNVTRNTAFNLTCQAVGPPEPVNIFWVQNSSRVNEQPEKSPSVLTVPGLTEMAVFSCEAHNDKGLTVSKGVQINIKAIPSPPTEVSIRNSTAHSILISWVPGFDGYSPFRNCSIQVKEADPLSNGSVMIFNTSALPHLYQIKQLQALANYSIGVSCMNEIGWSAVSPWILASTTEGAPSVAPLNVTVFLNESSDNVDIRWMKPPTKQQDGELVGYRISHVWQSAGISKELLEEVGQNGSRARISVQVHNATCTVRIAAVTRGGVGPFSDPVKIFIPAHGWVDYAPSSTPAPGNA
Method: as §1

Tyro-3-Fc (h-Tyro-3) = molecular target: T4, Tyro-3-Fc (h-Tyro-3) (human, UniProt Q06418 41-428, limits assumed); assay: ELISA on coated Fc fusion proteins
T4 construct: also called human Tyro-3-Fc; not shown: Fc part
T4 sequence (looked up): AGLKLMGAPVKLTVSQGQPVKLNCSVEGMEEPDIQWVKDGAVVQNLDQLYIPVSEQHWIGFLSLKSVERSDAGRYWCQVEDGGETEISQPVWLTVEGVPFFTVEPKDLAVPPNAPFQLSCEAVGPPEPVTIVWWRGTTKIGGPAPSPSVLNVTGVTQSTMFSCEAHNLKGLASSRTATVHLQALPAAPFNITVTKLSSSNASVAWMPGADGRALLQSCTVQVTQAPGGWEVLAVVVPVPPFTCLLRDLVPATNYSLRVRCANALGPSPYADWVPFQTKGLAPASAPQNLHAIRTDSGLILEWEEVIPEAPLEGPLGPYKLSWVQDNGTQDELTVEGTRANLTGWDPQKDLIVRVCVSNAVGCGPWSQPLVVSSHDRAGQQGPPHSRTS
Method: as §1

[2] = molecular target: human Axl extracellular domain fused to human Fc domain (hAxl-hFc protein; R&D system) (human) (UniProt P30530); assay: SPR (BIAcore), hAxl-hFc on a CM5 chip; 3E3-E8 (666 nM) injected first, before Gas6
[3] = molecular target: human Axl extracellular domain fused to human Fc domain (hAxl-hFc protein; R&D system) (human) (UniProt P30530); assay: SPR (BIAcore-3000), hAxl-hFc amine-coupled on a CM5 chip, mAb injected at 2 to 133 nM, 25° C., one-to-one Langmuir model
[4] = molecular target: human Axl extracellular domain fused to human Fc domain (hAxl-hFc protein; R&D system) (human) (UniProt P30530); assay: SPR (BIAcore), hAxl-hFc on a CM5 chip; 3E3-E8 (666 nM) injected second, after Gas6 (625 nM), without removing Gas6

B1: murine anti-Axl monoclonal antibody 3E3E8 (antibody, V domains shown)
VH: QVQLKESGPGLVAPSQSLSITCSVSGFSLTNYAVHWVRQPPGKGLEWLGVIWAGGSTNYNSALMSRLRISKDNSKSQVFFKMNSLQTDDTAMYYCARYYGSSLYPMDYWGQGTSVTVSS
VL: DIVMTQAAPSVPVTPGESVSISCRSSKSLLHSNGNTYLYWFLQRPGQSPQLLIYRMSNLASGVPDRFSGSGSGTVFTLRISGVEAEDVGVYYCMQHLEYPWTFGGGTELEIK
notes: also called mAb 3E3-E8; mAb 3E3E8
binding result [1]: binds | binding result (mouse Axl-Fc): no binding | binding result (human Mer-Fc): no binding | binding result (Tyro-3-Fc (h-Tyro-3)): no binding | Response (RU) [2]: 2500 RU | Kd [3]: 1.6 nM | Response (RU) [4]: 2420 RU

Reference: US20140227283A1 (INSERM INSTITUT NATIONAL DE LA SANTE ET DE LA RECHERCHE …, published 2014)
